Patent US8835119B2, “Lectin pathway deficiency assay” (Euro Diagnostica AB, priority 2002, dated 2014)

B1: Decorin: dermatan sulfate proteoglycan, a constituent of the extracellular matrix (protein, UniProt P07585 31-359, looked up)
Decorin: DEASGIGPEVPDDRDFEPSLGPVCPFRCQCHLRVVQCSDLGLDKVPKDLPPDTTLLDLQNNKITEIKDGDFKNLKNLHALILVNNKISKVSPGAFTPLVKLERLYLSKNQLKELPEKMPKTLQELRAHENEITKVRKVTFNGLNQMIVIELGTNPLKSSGIENGAFQGMKKLSYIRIADTNITSIPQGLPPSLTELHLDGNKISRVDAASLKGLNNLAKLGLSFNSISAVDNGSLANTPHLRELHLDNNKLTRVPGGLAEHKYIQVVYLHNNNISVVGSSDFCPPGHNTKKASYSGVSLFSNPVQYWEIQPSTFRCVYVRSAIQLGNYK
B2: Calreticulin (protein, UniProt P27797 18-417, looked up)
Calreticulin: EPAVYFKEQFLDGDGWTSRWIESKHKSDFGKFVLSSGKFYGDEEKDKGLQTSQDARFYALSASFEPFSNKGQTLVVQFTVKHEQNIDCGGGYVKLFPNSLDQTDMHGDSEYNIMFGPDICGPGTKKVHVIFNYKGKNVLINKDIRCKDDEFTHLYTLIVRPDNTYEVKIDNSQVESGSLEDDWDFLPPKKIKDPDASKPEDWDERAKIDDPTDSKPEDWDKPEHIPDPDAKKPEDWDEEMDGEWEPPVIQNPEYKGEWKPRQIDNPDYKGTWIHPEIDNPEYSPDPSIYAYDNFGVLGLDLWQVKSGTIFDNFLITNDEAYAEEFGNETWGVTKAAEKQMKDKQDEEQRLKEEEEDKKRKEEEEAEDKEDDEDKDEDEEDEEDKEEDEEEDVPGQAKDEL
B3: gC1qR: globular C1q receptor, binds specifically to the globular head of C1q (protein, UniProt Q07021 74-282, looked up)
Complement component 1 Q …: LHTDGDKAFVDFLSDEIKEERKIQKHKTLPKMSGGWELELNGTEAKLVRKVAGEKITVTFNINNSIPPTFDGEEEPSQGQKVEEQEPELTSTPNFVVEVIKNDDGKKALVLDCHYPEDEVGQEDEAESDIFSIREVSFQSTGESEWKDTNYTLNTDSLDWALYDHLMDFLADRGVDNTFADELVELSTALEHQEYITFLEDLKSFVKSQ

Columns and labels:
[1] = system: alternative pathway (AP) of complement; settings: NHS in calcium-free buffer (GVB/MgEGTA)
Protocol: As a ligand for AP activation, LPS was coated at 10 μg/ml. LPS from Salmonella typhosa was obtained from Sigma (L-6386), dissolved in PBS at 1.6 mg/ml and stored at −20° C. Plates were blocked by using 1% BSA in PBS. Serum samples were diluted in GVB/MgEGTA (VBS containing 10 mM EGTA, 5 mM MgCl2, 0.05% Tween-20, and 0.1% gelatin; pH 7.5) and incubated in the plate for 1 hour at 37° C. Complement binding was assessed by using dig-conjugated mAb directed against C4 and C3 followed by the detection of mAb binding by using HRP-conjugated sheep anti-dig antibodies.
In order to enable the detection of all complement activation pathways in one assay system, the activation of the alternative pathway in an ELISA system was also studied. […] Therefore, a calcium-free buffer was used, thus excluding involvement of the CP and the LP.

C1q [2] = target: T1, C1q (Homo sapiens, UniProt P02745+P02746+P02747); settings: cited from earlier work
[3] = system: classical complement pathway; settings: several in vitro assays; cited from earlier work
C1q [4] = target: T1, C1q; set-up: Human C1q was isolated from human donor plasma exactly as described previously; from tissue; host or cells: human donor plasma; settings: cited from earlier work
C1q [5] = target: T1, C1q; set-up: Human C1q was isolated from human donor plasma exactly as described previously; from tissue; host or cells: human donor plasma; settings: cited from earlier work; remark: listed apart in the source
[6] = system: classical pathway (CP) of complement; experiment: Classical pathway ELISA: complement activation by NHS on immobilized IgM; type: biochemical, human; settings: FIG. 3C; C1q-depleted NHS 1/400, purified C1q 0.5 μg/ml
Protocol: Anti-C1q antibodies were tested for their ability to inhibit the CP of complement by using immobilized IgM as a specific activator of the CP. […] These antibodies were tested for their effect on complement activation induced by immobilized mannan.
As a ligand for CP activation, human IgM was coated at 2 μg/ml. After blocking of residual binding sites, serum samples, diluted in GVB++, were added to the plate and incubated for 1 hour at 37° C.
The complement activation cascade was further studied by using mAb to detect binding of specific complement components upon their activation via the CP and the LP, respectively. […] Therefore, addition of mAb 2004 to serum allows the specific detection of LP activation by using mannan as ligand without any interference of the CP.

[7] = system: lectin pathway (LP) of complement; experiment: Lectin pathway ELISA: complement activation by NHS on immobilized mannan; type: biochemical, human; settings: FIG. 3C; C1q-depleted NHS 1/400, purified C1q 0.5 μg/ml
Protocol: Functional activity of the lectin pathway was assessed with ELISA by using immobilized mannan as a ligand. Mannan was obtained from Sigma from Saccharomyces cerevisiae; M7504), dissolved in PBS (10 mg/ml) and stored at −20° C. Nunc Maxisorb plates (Nunc, Roskilde, Denmark) were coated with mannan (100 μg/ml) in coating buffer (100 mM Na2CO3/NaHCO3, pH 9.6) for 16 hours at room temperature or for 2 hours at 37° C. After each step, the plates were washed three times with PBS containing 0.05% Tween 20. Residual binding sites were blocked by incubation for one hour at 37° C. with PBS containing 1% BSA. […] This mixture was pre-incubated for 15 minutes on ice, before addition to the plates. […] Complement binding was detected by using mouse mAb conjugated to digoxygenin (dig) by using digoxygenin-3-O-methylcarbonyl-ε-aminocaproic acid-N-hydroxysuccinimide ester (from Boehringer Mannheim, Mannheim, Germany) according to instructions provided by the manufacturer. […] Binding of mAb was detected by using dig-conjugated sheep anti-mouse antibodies (Fab fragments) followed by HRP-conjugated sheep anti-dig antibodies (Fab fragments, both from Boehringer Mannheim). […] Enzyme activity of HRP was detected following incubation at room temperature for 30-60 min with 2,2′-azino-bis(3-ethylbenzthiazoline-6-sulfonic acid) (from Sigma; 2.5 mg/ml in 0.1 M citrate/Na2HPO4 buffer, pH 4.2) in the presence of 0.01% H2O2. […]

C1q [8] = target: T1, C1q; experiment: C1q-dependent hemolytic assay; type: cell-based; set-up: Human C1q was isolated from human donor plasma exactly as described previously; from tissue; host or cells: human donor plasma
Protocol: (Roos A., et al., J. Immunol. 167, 7052-7059, 2001).
For the preparation of C1q-depleted serum, undiluted normal human EDTA plasma (obtained from a donor with the MBL/AA genotype) was applied on column consisting of Biogel A5 (from Biorad) coupled to rabbit IgG anti-human C1q. The column was washed by using Veronal-buffered saline (VBS; 1.8 mM Na-5,5-diethylbarbital, 0.2 mM 5,5-diethylbarbituric acid, 145 mM NaCl) containing 10 mM EDTA. Fractions were tested in a C1q-dependent hemolytic assay in the absence or presence of purified C1q. […] After recalcification, C1q-depleted serum was stored at −80° C.

T1 sequence (P02745 23-245): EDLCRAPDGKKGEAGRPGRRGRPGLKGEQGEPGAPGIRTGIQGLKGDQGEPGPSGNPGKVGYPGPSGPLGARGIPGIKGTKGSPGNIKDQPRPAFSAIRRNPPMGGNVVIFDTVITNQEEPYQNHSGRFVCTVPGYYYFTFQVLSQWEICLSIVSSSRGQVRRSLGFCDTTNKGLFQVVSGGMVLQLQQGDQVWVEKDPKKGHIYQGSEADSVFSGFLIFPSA
T1 sequence (P02746 28-253): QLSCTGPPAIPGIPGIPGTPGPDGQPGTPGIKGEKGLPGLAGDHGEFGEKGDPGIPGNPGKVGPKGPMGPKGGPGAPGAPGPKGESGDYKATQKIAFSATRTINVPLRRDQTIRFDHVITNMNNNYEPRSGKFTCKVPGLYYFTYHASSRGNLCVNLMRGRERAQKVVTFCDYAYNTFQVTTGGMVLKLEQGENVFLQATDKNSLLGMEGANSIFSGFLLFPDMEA
T1 sequence (P02747 29-245): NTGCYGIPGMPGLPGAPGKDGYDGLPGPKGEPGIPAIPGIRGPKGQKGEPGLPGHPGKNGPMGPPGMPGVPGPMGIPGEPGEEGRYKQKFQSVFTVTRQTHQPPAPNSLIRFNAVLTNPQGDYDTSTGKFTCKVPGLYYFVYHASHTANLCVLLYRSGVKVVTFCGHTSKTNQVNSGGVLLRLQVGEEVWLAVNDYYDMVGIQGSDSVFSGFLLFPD

Molecule	Mechanism of C1 inhibition (C1q [2])	further results
O=C(O)CN(CCN(CC(=O)O)CC(=O)O)CC(=O)O [EDTA]	–	Detection of C3 when present in the complement source [1]: reduced until background levels
AEAKAKA	Inhibits C1q ligand binding	Inhibition of activation of the classical complement pathway [3]: able to inhibit
C1 inhibitor: plasma serine protease inhibitor	Inhibits C1r and C1s activity	–
CEGPFGPRHDLTFCW [Peptide 2J]	Binds C1q head, inhibits	Inhibition of C1q-dependent hemolysis / C1q hemolytic function (C1q [4]): strong inhibitor; Inhibition of binding of C1q to IgG (C1q [5]): inhibits
KDIRCKDD	Inhibits C1q ligand binding	–
LEQGENVFLQATLL [Peptide CBP2]	Acts as a competitor for C1q	–
Surfactant protein A: collectin present in the lung	Inhibits C1q ligand binding	–
VQVHNAKTKPR	–	Inhibition of activation of the classical complement pathway [3]: able to inhibit
human neutrophil peptide-1 [HNP-1]	Binds C1q tail and inhibits	–
purified C1q: human C1q isolated from human donor plasma	–	C4 activation by IgM after reconstitution of C1q-depleted serum [6]: complete restoration; C4 activation by mannan after addition to C1q-depleted serum [7]: slightly inhibited; Restoration of lysis of antibody-coated erythrocytes induced by C1q-depleted human serum (C1q [8]): completely restore
B1	Binds to C1q head	–
B2	–	Inhibition of C1q-dependent hemolysis / C1q hemolytic function (C1q [4]): inhibit
B3	Binds C1q head	–
